In article PMC3333781, “Systematic mapping of two component response regulators to gene targets in a model sulfate reducing bacterium”:

What was measured:
Assay in all cases: EMSA; 10 mM Tris-HCl pH 7.5, 1 mM DTT, 50 mM KCl, 5 mM MgCl2, 25% glycerol, 1 ug/ml poly dI-dC, 50-100 fmol biotinylated DNA, 25-30 C, 20 min
Details in all cases: protein: recombinant; tags: C-terminal V5-6xHis; chain copies: 2; label: 5'-biotin top strand
[1] = molecular target: T1, DVU3381 response regulator (Desulfovibrio vulgaris Hildenborough, UniProt Q725P3 1-459)
T1 sequence: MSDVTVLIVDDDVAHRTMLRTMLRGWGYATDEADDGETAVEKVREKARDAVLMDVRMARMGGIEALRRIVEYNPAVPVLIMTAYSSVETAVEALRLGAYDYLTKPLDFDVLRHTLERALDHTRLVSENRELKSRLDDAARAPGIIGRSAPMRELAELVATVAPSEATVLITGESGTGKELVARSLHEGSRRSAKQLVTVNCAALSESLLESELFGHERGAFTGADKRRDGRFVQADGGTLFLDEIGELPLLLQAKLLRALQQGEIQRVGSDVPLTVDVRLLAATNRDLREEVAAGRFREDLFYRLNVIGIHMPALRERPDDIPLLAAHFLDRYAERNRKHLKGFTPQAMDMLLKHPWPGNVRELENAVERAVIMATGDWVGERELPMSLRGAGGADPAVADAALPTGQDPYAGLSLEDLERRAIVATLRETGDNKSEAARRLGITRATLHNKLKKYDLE

[2] = molecular target: T2, DVU1083 response regulator (PhoB) (Desulfovibrio vulgaris Hildenborough, UniProt Q72D47 1-229)
T2 sequence: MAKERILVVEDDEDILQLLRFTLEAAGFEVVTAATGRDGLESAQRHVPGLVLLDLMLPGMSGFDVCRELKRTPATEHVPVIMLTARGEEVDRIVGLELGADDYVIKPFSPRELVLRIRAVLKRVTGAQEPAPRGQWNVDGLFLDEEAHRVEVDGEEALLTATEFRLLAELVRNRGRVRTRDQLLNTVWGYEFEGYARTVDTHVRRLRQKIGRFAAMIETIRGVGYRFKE

[3] = molecular target: T3, DVU3023 response regulator (Desulfovibrio vulgaris Hildenborough, UniProt Q726T3 1-474)
T3 sequence: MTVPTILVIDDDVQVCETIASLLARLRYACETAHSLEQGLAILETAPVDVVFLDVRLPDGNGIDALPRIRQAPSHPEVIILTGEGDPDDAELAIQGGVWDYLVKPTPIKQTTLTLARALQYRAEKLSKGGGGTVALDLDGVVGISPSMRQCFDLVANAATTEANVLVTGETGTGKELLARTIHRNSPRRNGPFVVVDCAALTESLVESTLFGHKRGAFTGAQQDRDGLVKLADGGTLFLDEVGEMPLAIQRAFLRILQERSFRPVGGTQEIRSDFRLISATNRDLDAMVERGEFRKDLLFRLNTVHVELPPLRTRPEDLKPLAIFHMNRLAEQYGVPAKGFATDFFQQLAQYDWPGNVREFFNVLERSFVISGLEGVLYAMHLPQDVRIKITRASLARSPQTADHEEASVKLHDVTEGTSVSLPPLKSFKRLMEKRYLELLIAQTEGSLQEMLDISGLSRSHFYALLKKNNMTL

[4] = molecular target: T4, DVU0679 response regulator (Desulfovibrio vulgaris Hildenborough, UniProt Q72E99 1-488)
T4 sequence: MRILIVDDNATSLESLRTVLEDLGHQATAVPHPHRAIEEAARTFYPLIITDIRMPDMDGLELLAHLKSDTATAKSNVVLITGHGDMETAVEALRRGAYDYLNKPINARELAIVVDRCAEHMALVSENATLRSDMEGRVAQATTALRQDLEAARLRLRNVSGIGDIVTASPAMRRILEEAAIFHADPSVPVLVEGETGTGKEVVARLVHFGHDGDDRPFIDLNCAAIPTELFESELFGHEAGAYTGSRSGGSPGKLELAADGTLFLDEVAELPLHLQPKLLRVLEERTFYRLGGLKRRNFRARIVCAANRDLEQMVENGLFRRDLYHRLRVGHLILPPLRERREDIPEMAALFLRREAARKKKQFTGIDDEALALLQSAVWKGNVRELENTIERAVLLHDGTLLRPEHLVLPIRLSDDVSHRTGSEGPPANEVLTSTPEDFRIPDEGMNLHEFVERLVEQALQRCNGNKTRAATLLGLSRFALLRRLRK

[5] = molecular target: T5, DVU2588 response regulator (Desulfovibrio vulgaris Hildenborough, UniProt Q728L5 1-226)
T5 sequence: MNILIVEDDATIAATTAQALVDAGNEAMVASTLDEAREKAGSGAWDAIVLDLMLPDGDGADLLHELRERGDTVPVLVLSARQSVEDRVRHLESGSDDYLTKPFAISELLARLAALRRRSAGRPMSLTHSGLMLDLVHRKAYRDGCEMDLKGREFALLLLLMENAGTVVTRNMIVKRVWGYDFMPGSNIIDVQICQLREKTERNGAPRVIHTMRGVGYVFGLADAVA

[6] = molecular target: T6, DVU3305 response regulator (Desulfovibrio vulgaris Hildenborough, UniProt Q725X0 1-451)
T6 sequence: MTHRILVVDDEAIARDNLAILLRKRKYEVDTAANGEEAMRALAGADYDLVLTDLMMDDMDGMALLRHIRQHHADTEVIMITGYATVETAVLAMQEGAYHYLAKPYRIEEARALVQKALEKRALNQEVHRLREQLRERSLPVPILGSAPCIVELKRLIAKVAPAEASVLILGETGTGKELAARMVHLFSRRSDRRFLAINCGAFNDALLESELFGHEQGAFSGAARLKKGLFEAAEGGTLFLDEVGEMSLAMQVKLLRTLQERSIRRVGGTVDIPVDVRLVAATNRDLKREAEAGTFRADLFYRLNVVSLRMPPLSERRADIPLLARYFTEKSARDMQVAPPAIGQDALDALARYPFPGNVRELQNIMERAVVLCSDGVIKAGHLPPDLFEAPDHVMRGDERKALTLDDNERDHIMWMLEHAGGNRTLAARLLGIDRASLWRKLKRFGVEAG

[7] = molecular target: T7, DVU2934 response regulator (Desulfovibrio vulgaris Hildenborough, UniProt Q727C1 1-472)
T7 sequence: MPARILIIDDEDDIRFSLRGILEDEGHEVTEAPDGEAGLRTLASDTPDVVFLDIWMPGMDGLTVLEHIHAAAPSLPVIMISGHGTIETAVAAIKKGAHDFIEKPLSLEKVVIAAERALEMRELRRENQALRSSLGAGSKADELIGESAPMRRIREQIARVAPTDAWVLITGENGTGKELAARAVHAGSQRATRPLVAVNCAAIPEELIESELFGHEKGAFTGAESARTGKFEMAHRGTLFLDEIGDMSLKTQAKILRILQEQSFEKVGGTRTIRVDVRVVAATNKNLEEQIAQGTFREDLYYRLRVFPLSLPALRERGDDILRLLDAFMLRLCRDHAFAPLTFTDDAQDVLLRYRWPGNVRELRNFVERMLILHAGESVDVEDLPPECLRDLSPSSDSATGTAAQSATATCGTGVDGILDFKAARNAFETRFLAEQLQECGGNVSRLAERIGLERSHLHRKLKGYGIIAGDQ

[8] = molecular target: T8, DVU0946 response regulator (Desulfovibrio vulgaris Hildenborough, UniProt Q72DI3 1-476)
T8 sequence: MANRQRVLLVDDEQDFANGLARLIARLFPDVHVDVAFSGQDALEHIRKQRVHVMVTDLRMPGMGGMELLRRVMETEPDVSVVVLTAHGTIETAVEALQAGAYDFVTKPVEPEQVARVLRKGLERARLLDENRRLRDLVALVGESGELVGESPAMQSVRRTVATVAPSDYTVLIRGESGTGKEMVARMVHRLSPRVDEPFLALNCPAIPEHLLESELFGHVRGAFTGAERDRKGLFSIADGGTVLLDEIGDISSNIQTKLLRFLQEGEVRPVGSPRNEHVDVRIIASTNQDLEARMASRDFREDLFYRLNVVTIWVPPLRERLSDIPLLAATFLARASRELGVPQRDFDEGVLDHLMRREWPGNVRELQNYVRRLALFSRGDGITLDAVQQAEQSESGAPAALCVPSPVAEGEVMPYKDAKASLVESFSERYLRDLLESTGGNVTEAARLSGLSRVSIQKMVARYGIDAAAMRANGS

[9] = molecular target: T9, DVU0539 response regulator (Desulfovibrio vulgaris Hildenborough, UniProt Q72EN8 1-467)
T9 sequence: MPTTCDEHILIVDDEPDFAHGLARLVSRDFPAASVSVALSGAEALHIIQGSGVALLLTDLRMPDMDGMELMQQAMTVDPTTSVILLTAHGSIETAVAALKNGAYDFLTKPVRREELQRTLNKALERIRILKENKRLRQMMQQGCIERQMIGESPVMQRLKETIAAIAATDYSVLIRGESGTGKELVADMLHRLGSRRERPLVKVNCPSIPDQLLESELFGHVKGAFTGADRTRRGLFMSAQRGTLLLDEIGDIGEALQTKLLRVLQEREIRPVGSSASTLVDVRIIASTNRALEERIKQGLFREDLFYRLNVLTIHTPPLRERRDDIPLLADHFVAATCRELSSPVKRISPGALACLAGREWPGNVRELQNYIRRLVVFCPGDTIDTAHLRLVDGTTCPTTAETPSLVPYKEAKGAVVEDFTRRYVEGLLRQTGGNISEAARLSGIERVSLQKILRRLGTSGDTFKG

B1: DVU3384 motif mut (dsDNA)
DNA 1: CACGAATGGAATGTATTTTTCTTGCACCCATACAC
DNA 2: GTGTATGGGTGCAAGAAAAATACATTCCATTCGTG
[1]
  binding result: no binding

B2: DVU1083 motif mut (dsDNA)
DNA 1: GTTGTAAAATGACAAACGGTTCTAGACGCTCTTCCA
DNA 2: TGGAAGAGCGTCTAGAACCGTTTGTCATTTTACAAC
[2]
  binding result: no binding

B3: DVU3025 motif mut (dsDNA)
DNA 1: GCCACACGAACTGCGCTTTTCAATCAACGCTACCAC
DNA 2: GTGGTAGCGTTGATTGAAAAGCGCAGTTCGTGTGGC
[3]
  binding result: no binding

B4: DVU0677 motif mut (dsDNA)
DNA 1: AATCGCACGCGGAGAGTATTCGGATGTGCTTTTCCG
DNA 2: CGGAAAAGCACATCCGAATACTCTCCGCGTGCGATT
[4]
  binding result: no binding

B5: DVU0943 DVU2588-motif mut (dsDNA)
DNA 1: CGTCCTGCACCTAATCATTCTTAAGTTAAAAGCTGT
DNA 2: ACAGCTTTTAACTTAAGAATGATTAGGTGCAGGACG
[5]
  binding result: no binding

B6: DVU3303 motif mut (dsDNA)
DNA 1: AAAGCCTCGTCATGGGATATCGTACACGAGGCCAC
DNA 2: GTGGCCTCGTGTACGATATCCCATGACGAGGCTTT
[6]
  binding result: no binding

B7: DVU2917 motif mut (dsDNA)
DNA 1: CTCGCCATGTGGACTGCAGAAGAGAGACTGTGCGTGG
DNA 2: CCACGCACAGTCTCTCTTCTGCAGTCCACATGGCGAG
[7]
  binding result: no binding

B8: DVU0943 second site mut (dsDNA)
DNA 1: AAAGGGCTCGACAACAGATGTTCCATGCAAA
DNA 2: TTTGCATGGAACATCTGTTGTCGAGCCCTTT
[8]
  binding result: no binding
[9]
  binding result: no binding
